# Results reported in patent US9809627B2, “Cyclized transthyretin peptide and methods of use therefor” (Wisconsin Alumni Research Foundation, priority 2014, dated 2017).
# Entries after “also recorded” stand apart in the source; their conditions may differ. Where no end group is shown, it is not given here. [ ]: non-standard residue; d: D form.
# What was measured:
# Aβ (1-40) [1] = target: T1, Aβ (1-40) (Homo sapiens, UniProt P05067); test: Photoinduced cross-linking (PICUP) of Aβ and peptides; format: binding
# T1 construct: Aβ (1-40) was purchased from Anaspec, Inc. (Fremont, Calif.) as lyophilized powder; purchased Anaspec, Inc. (Fremont, Calif.)
# Experimental: (§1) Aβ (1-40) was purchased from Anaspec, Inc. (Fremont, Calif.) as lyophilized powder. For dynamic light scattering, ThT fluorescence assay, TEM, NTA measurement and filtration/sedimentation assay, Aβ was dissolved in 50% ACN, re-lyophilized, and reconstituted in 8M urea at 12 mg/mL. Aβ stock was then aliquoted, snap-frozen in ethanol with dry ice, and stored at −80° C. For PICUP and proteolytic fragmentation analysis, lyophilized Aβ was dissolved in prechilled hexafluoroisopropanol (HFIP, Acros Organics, Geel, Belgium), aliquoted, dried and stored at −20° C. as previously described (Cho et al., 2014). Aβ sample was prepared right before use by dissolving dried peptides in 50 mM NaOH and diluting into phosphate-buffered saline (PBSA) (10 mM Na2HPO4/NaH2PO4, 150 mM NaCL and 0.02% NaN3 (pH 7.4)) to 30 μM as previously described (Cho et al., 2014).
# Aβ prepared with HFIP/NaOH treatment at 30 μM as described was mixed with peptides to a final concentration of 24 μM Aβ and 2.4 μM peptides. Aβ stock was used immediately (freshly prepared) or after incubation for 24 hr at 37° C. (1 day pre-aggregated). Samples of Aβ with and without peptides were incubated for 1 hr at 37° C. and cross-linked by photo-induced cross-linking method as previously described (Cho et al., 2014). Cross-linked samples were then separated on a 10-20% Tris-Tricine gradient gel (Iinvotrogen, Carlsbad, Calif.), transferred onto a 0.2 μm poly(vinylidene difluoride) (PVDF) membrane and detected by monoclonal mouse anti-Aβ antibody 4G8 (Covance, Princeton, N.J.) as previously described (Cho et al., 2014).
# Aβ (1-40) [2] = target: T1, Aβ (1-40); test: Proteolytic fragmentation assay of Aβ with peptides (Proteinase K); format: binding; settings: 3:1 molar excess of peptides, detection by 4G8
# Experimental: as §1
# The proteolytic fragmentation assay of Aβ with peptides was performed as previously described in detail (Cho et al., 2014). Briefly, Aβ alone (20 μM) or with peptide (60 μM) was incubated for 24 hr at 37° C. Proteinase K (Promega, Madison, Wis.) was added to the samples at a final concentration of 0.5 μg/mL and samples were dotted onto a 0.45 μm nitrocellulose membrane (Pierce) after incubation for 0, 5, 10, 20, 30, 40, 50, 60, 90 and 120 min. Membranes were then reacted with monoclonal antibodies against Aβ (6E10, Covance, against Aβ (3-8) and 4G8 against Aβ (18-22)) and visualized.
substance,measurement,setting,value
SKVVT^DPPRYTIAALLSPYSYSQ [CG3] (chain 1 SKVVT[dP]PRYTIAALLSPYSYSQ; chain 2 SKVVT[dP]PRYTIAALLSPYSYSQ; also: head-to-tail to a chain's N/C-terminus) [cyclic 22-mer of TTR residues 104-123 grafted onto DPro-Pro template],interaction with freshly prepared versus pre-aggregated Aβ,Aβ (1-40) [1]; freshly prepared or 1 day pre-aggregated Aβ,much less interaction with freshly prepared Aβ than with pre-aggregated Aβ
same,interaction with Aβ (shift in cross-linked Aβ size distribution),"Aβ (1-40) [1]; pre-aggregated Aβ, 10:1 molar excess of Aβ, Western blot 4G8",interact with Aβ
same,effect on Aβ degradation by protease,Aβ (1-40) [2],Aβ degradation was delayed; also recorded: most effective in inhibiting degradation
